This note sets out measurements from patent US20130295118A1 (CELLERANT THERAPEUTICS, published 2013).

To fix the notation:
T1: human C type Lectin Like molecule 1 (CLL-1) on cells (human, UniProt Q5QGZ9 1-265)
T1 sequence: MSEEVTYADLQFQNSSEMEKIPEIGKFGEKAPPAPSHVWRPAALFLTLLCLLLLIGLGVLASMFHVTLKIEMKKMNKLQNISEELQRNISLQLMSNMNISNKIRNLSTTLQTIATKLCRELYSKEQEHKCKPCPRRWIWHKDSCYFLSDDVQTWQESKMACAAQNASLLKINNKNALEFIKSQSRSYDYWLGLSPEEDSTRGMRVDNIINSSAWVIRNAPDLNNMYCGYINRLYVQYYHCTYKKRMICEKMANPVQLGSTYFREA

T2: C lectin domain of CLL-1 expressed in 293T cells (human, UniProt Q5QGZ9 140-249)
T2 sequence: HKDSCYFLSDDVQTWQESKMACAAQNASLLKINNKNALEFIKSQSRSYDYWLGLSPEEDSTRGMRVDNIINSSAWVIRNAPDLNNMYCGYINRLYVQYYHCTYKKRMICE

T3: biotinylated CLL-1 (hCLL-1) (human, UniProt Q5QGZ9 65-265, limits assumed, biotinylated (site not stated))
T3 sequence: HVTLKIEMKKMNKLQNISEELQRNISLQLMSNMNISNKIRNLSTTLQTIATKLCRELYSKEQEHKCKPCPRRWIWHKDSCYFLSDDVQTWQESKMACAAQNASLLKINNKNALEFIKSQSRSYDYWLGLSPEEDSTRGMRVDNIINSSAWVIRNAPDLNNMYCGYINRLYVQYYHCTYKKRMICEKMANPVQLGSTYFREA

B1: human chimeric CLL-1 antibody ChiG4 (antibody, V domains shown)
VH: EVQLQQSGPELVKPGASMKISCKASGYSFTGYTMNWVKQSHEKNLEWIGPINPYNDGTIYNPNFKGKATLTVDKASSTAYMELLSLTSDDPAVYYCARTDDYDDYTMDYWGQGTSVTVSS
VL: EIQMTQTPSSLSASLGDRVTISCRASHDISNYLNWYQQKPDGTLKLLIYYTSRLHSGVPSRFSGSGSGTDYSLTISNLEQEDIATYFCQQGKTLLWTFGGGTKLEIK
B2: human chimeric CLL-1 antibody ChiM26 (antibody, V domains shown)
VH: EVQLQQSGPELVKPGASVKMSCKASGYTFTSYFIHWVKQKPGQGLEWIGFINPYNDGSKYNEKFKGKATLTSDKSSSTAYMELSSLTSEDSAVYYCTRDDGYYGYAMDYWGQGTSVTVSS
VL: DIQMTQSPSSLSASLGERVSLTCRATQELSGYLSWLQQKPDGTIKRLIYAASTLDSGVPKRFSGNRSGSDYSLTISSLESEDFADYYCLQYAIYPYTFGGGTKLEIKR
B3: human chimeric CLL-1 antibody ChiM31 (antibody, V domains shown)
VH: EVQLQQSGPELVKPGASVKMSCKASGYTFTSYVMHWVKQKPGQGLEWIGYINPYNDGTKYNEKFKGKATLTSDTSSSTAYMELNSLTSEDSAVYFCARPIYFDNDYFDYWGQGTTLKVSS
VL: TIVLTQSPASLAVSLGQRATISCRASESVDSYGNSFMHWYQQKPGQPPKLLIYLASNLESGVPARFSGSGSRTDFTLTIDPVEADDAATYYCQQNNYDPWTFGGGTKLEIK
B4: CLL-1 antibody clone M29 (antibody, IgG1, V domains shown)
VH: EVQLQQSGPELVKPGASVKMSCKASGYIFTSYVMYWVKQKPGQGLEWIGYINPYNDGTKYNEKFKGKATLTSDKSSSTAYMELSSLTSEDSAVYYCARYYDYDYYFDYWGQGTTLTVSS
VL: DIQMTQSPSSLSASLGGKVTITCKASQDINKYIAWYQHKPGKGPRLLIHYTSTLQPGIPSRFSGSGSGRDYSFSISNLEPEDIATYYCLQYDYLWTFGGGTKLEIK
B5: CLL-1 antibody clone G4 (antibody, IgG1, V domains shown)
VH: B1 VH
VL: B1 VL
notes: also called 31.G4; 31G4
B6: CLL-1 antibody clone M5 (antibody, IgG2a, V domains shown)
VH: EVQLQQSGAELVRPGASVKLSCTASGFNIKDDYIHWVKQRPEQGLEWIGWIDPEKGDTAYASKFQDKATITSDTSSNTAYLQLSSLTSEDTAVYYCTLTGRFDYWGQGTTLTVSS
VL: DIVMSQSPSSLAVSVGEKVTMSCKSSQSLLYSSNQKNNLAWYQQKPGQSPKLLIYWASTRESGVPDRFTGSGSGTDFTLTISSVQAEDLAVYYCQQYYSYRTFGGGTKLEIK
B7: CLL-1 antibody clone M26 (antibody, V domains shown)
VH: B2 VH
VL: B2 VL
notes: Conjugated to saporin in the ADC assays
B8: CLL-1 antibody clone M2 (antibody, IgG1, V domains shown)
VH: B2 VH with Q5R, I34M, S58T, S84N, G104D
VL: B2 VL with T26S, L29I, G31V, K60E, N65S, I93S
B9: CLL-1 antibody clone G12 (antibody, IgG1, V domains shown)
VH: QVQLQQPGAELVKPGASMKMSCKASGYTFPSSNIHWLKQTPGQGLEWIGVIYPGNGDTSYNQKFKDKATLTTDKSSSTAYMQLSSLTSEDSAIYFCARVYNWHFDVWGAGTTVTVSS
VL: NIVLTQSPASLAVSLGQRATISCRASESVDGYGDIFMLWYQQKPGQPPKLLIYFASNLESGVPARFSGSGSRTDFTLTIDPVEADDAATYYCQQNNEDPYTFGGGTKLEIKR
B10: CLL-1 antibody clone M31 (antibody, IgG2a, V domains shown)
VH: B3 VH
VL: B3 VL
B11: CLL-1 antibody clone M22 (antibody, IgG2a, V domains shown)
VH: QVQLQQPGAELVKPGASVKLSCKASGYTFTRYWMHWVKQRPGQGLEWIGNIDPSDTETHYNQQFKDKATLTVDKSSSTAYMQLSSLTSEDSAVYYCAIYYGNPSYYAMDYWGQGTSVTVSS
VL: DIVMTQSPSSLTVTAGEKVTMSCKSSQNLLNSGNQKKYLNWYQQKPGQPPKLLIYWASTRESGVPDRFTGSGSGTDFTLTISSVQAEDLAVYFCQNDYSYPFTFGAGTKLELK

Where a chain is given by its changes, count along the chain named.

One experiment has as its target T1, human C type Lectin Like molecule 1 …. The experiment can be described thus: cell-based or functional assay.
In the case of B1, the “ADCC EC50 (Promega ADCC Reporter Assay)” value amounted to 0.105 µg/mL.

In the case of B2, the “ADCC EC50 (Promega ADCC Reporter Assay)” value worked out at 0.079 µg/mL.

Take B3: the “ADCC EC50 (Promega ADCC Reporter Assay)” value is 0.143 µg/mL.

A further experiment has the same target. The experiment can be described thus: cell-based or functional assay. This is another data set of the same source.
For the molecule B4, the “ADC EC50 (pM), saporin-conjugated antibody, cell viability” value (“ADC EC50 (pM)” below) amounted to 91.4 pM.

B5: the “ADC EC50 (pM)” value was found to be 44.4 pM.

For the molecule B6, the “ADC EC50 (pM)” value came out at 150 pM.

Take B7: the “ADC EC50 (pM)” value was found to be 90.2 pM.

For the molecule B8, the “ADC EC50 (pM)” value was 20.9 pM.

Take B9: the “ADC EC50 (pM)” value was 19.4 pM.

Take B10: the “ADC EC50 (pM)” value came to 34.3 pM.

Another experiment shares this target. The experiment can be described thus: cell-based or functional assay. The source holds these as a separate data set.
With B6, the “CDC (% killing), 10 ug/mL antibody, primary AML cells” value (shortened to “CDC (% killing), 10 ug/mL antibody”) was found to be 17.9%.

Regarding B11, the “CDC (% killing), 10 ug/mL antibody” value is 14.5%.

Take B10: the “CDC (% killing), 10 ug/mL antibody” value stood at 12.1%.

The next experiment shares this target. The experiment can be described thus: FACS, HL60 AML cell line. (In general: A flow cytometer gives signals particle by particle.)
As to B4, the “% of live cells with antibody binding” value was 84.6%.

Regarding B5, the “% of live cells with antibody binding” value came to 83.2%.

For B6, the “% of live cells with antibody binding” value came out at 1.7%.

Consider B8, for which the “% of live cells with antibody binding” value was 90.3%.

B11: the “% of live cells with antibody binding” value was determined as 37.2%.

B9: the “% of live cells with antibody binding” value stood at 88.3%.

For B10, the “% of live cells with antibody binding” value came out at 91%.

Another experiment has the same target. The experiment can be described thus: FACS, OCI AML-5 AML cell line.
Consider B4, for which the “% of live cells with antibody binding” value was 87.6%.

On to B5, for which the “% of live cells with antibody binding” value stood at 83.2%.

For the molecule B6, the “% of live cells with antibody binding” value was found to be 2.3%.

Take B8: the “% of live cells with antibody binding” value is 96.3%.

Consider B11, for which the “% of live cells with antibody binding” value came out at 57.6%.

Turning to B10, the “% of live cells with antibody binding” value turned out to be 89.7%.

The target is the same in another experiment. The experiment can be described thus: FACS, primary AML patient cells, Group 1.
Regarding B5, the “positive patient samples / total tested” value was 2 of 2 patient samples.

On to B8, for which the “positive patient samples / total tested” value was 2 of 2 patient samples.

B9: the “positive patient samples / total tested” value was 2 of 2 patient samples.

The target is the same in another experiment. The experiment can be described thus: FACS, recombinant 293 cells expressing human CLL-1.
Regarding B4, the “% of live cells with antibody binding” value worked out at 99.9%.

In the case of B6, the “% of live cells with antibody binding” value amounted to 1.1%.

On to B8, for which the “% of live cells with antibody binding” value turned out to be 99.9%.

Take B11: the “% of live cells with antibody binding” value was 97%.

As to B9, the “% of live cells with antibody binding” value is 99.9%.

In the case of B10, the “% of live cells with antibody binding” value was determined as 76%.

A further experiment addresses T2, C lectin domain of CLL-1 expressed in …. The experiment can be described thus: binding to 293T cells expressing the C lectin domain of CLL-1.
For the molecule B7, the binding result is “no binding”.

Regarding B10, the binding result is “no binding”.

Another experiment deals with T3, biotinylated CLL-1 (hCLL-1). The experiment can be described thus: biotinylated CLL-1 on streptavidin sensor tips; antibody at 10, 30, 90 ug/ml; global 1:1 fit.
In general, Kd refers to the concentration at which binding is half-saturated. Read a high Kd as lower affinity. As for B4, the Kd is 1.48 nM.

Consider B5, for which the Kd worked out at 0.053 nM.

For B6, the Kd is 0.553 nM.

Turning to B7, the Kd was determined as 0.214 nM.

As to B8, the Kd turned out to be 0.205 nM.

B11 had a Kd of 0.388 nM.

Take B9: the Kd came out at 0.07 nM.

Take B10: the affinity, expressed as Kd, was 0.611 nM.
